Results: article PMC3281585 (Science (New York, N.Y.), 2011)

B1: gp44 protein of the T4 clamp loader (natural protein, bacteriophage T4)
chain: MITVNEKEHILEQKYRPSTIDECILPAFDKETFKSITSKGKIPHIILHSPSPGTGKTTVAKALCHDVNADMMFVNGSDCKIDFVRGPLTNFASAASFDGRQKVIVIDEFDRSGLAESQRHLRSFMEAYSSNCSIIITANNIDGIIKPLQSRCRVITFGQPTDEDKIEMMKQMIRRLTEICKHEGIAIADMKVVAALVKKNFPDFRKTIGELDSYSSKGVLDAGILSLVTNDRGAIDDVLESLKNKDVKQLRALAPKYAADYSWFVGKLAEEIYSRVTPQSIIRMYEIVGENNQYHGIAANTELHLAYLFIQLACEMQWK

Key:
crystal structure = molecular target: the molecule itself; assay: crystal structure
[1] = molecular target: B1; assay: crystal structure

| Binder | binding result (crystal structure) | binding result [1] |
| --- | --- | --- |
| B1 | binds |  |
| gp62 protein of the T4 clamp loader (natural protein, bacteriophage T4) SLFKDDIQLNEHQVAWYSKDWTAVQSAADSFKEKAENEFFEIIGAINNKTKCSIAQKDYSKFMVENALSQFPECMPAVYAMNLIGSGLSDEAHFNYLMAAVPRGKRYGKWAKLVEDSTEVLIIKLLAKRYQVNTNDAINYKSILTKNGKLPLVLKELKGLVTDDFLKEVTKNVKEQKQLKKLALEW |  | binds |
